Test [1] addresses wild-type SARS-CoV-2 Wuhan Hu-1 receptor-binding domain (residues 319-533) (SARS-CoV-2 Wuhan-Hu-1). Nature of the test: BLI. The settings on record: both partners purified.
Test [2] addresses SARS-CoV-2 RBD (RWT), wild-type Wuhan Hu-1 receptor-binding domain, residues 319-533 (SARS-CoV-2 Wuhan Hu-1). The test is described as follows: BLI. The conditions noted are these: both partners purified.

This note sets out measurements from PMC11503491 (ACS Central Science, 2024).

By koff is commonly meant the rate constant with which the complex falls apart. The term Kd denotes the free concentration of one partner at which half of the binding sites on the other are occupied at equilibrium, for simple one-to-one binding. The low end stands for a tighter complex, the high end for a looser complex.

B1: C002 (antibody, V domains shown)
VH: EVQLVESGGGVVQPGRSLRLSCAASGFTFSIYGMHWVRQAPGKGLEWVAVISYDGSNKYYADSVKGRFTISRDNSKNTLYLQMNSLRAEDTAVYYCAKEGRPSDIVVVVAFDYWGQGTLVTVSS
VL: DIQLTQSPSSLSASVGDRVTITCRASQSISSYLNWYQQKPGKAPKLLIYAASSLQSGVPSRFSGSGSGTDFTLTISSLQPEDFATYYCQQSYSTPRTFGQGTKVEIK
As for B1, the binding result in test [1] is on record as “binds”.

B2: 1-16 (antibody, V domains shown)
VH: QVQLVQSGAEVKKPGASVKVSCKASGYTFTSYYMHWVRQAPGQGLEWMGIINSSGGSTSYAQKFQGRVTMTRDTSTSTVYMELSSLRSEDTAVYYCARPPRNYYDRSGYYQRAEYFQHWGQGTLVTVSS
VL: DIQLTQSPSSLSASVGDRVTITCQASQDISNYLNWYQQRPGKAPKLLIYDASNLETGVPSRFSGSGSGTDFTFTISSLQPEDIATYYCQQYDNPPLTFGGGTKLEIK
notes: also called S2X259-like class 4 antibody
Regarding B2, the binding result in test [1] is recorded as “binds”.

B3: COVA2-15 (antibody, V domains shown)
VH: QVQLLESGGGLVQPGGSLRLSCAASGFTFSSYAMSWVRQAPGKGLEWASAISGSGGSTYYADSVEGRFTISRDNSKNTLYLQMNSLRAEDTAVYYCAKDTGYCGDDCYIKLIRGGPDYWGQGTLVTVSS
VL: DIVMTQSPLSLPVTLGQPASISCRSSQSLVYSDGNTFLNWFQQRPGQSPRRLIYQVSNRDSGVPDRFSGSGSGTDFTLKISRVEAEDVGVYYCMQGTHWPRTFGQGTKLEIK
notes: also called class 2 antibody
Turning to B3, in test [1], the binding result is “binds”.

B4: C022 (antibody, V domains shown)
VH: QVQLQESGPGLVKPSETLSVTCTVSGGSISSSRYYWGWIRQPPGKGLEWIGSIYYSGSTYYNPSLKSRVTISVDTSKNQFSLKLSSVTAADTAVYYCARHAAAYYDRSGYYFIEYFQHWGQGTLVTVSS
VL: DIQMTQSPSTLSASVGDSVTITCRASQSISSWLAWYQQKPGKAPKLLIYKASSLESGVPSRFSGSGSGTEFTLTISSLQPDDFATYYCQQYNNYRYTFGQGTKLEIK
notes: as for B2
Turning to B4, the binding result in test [1] was “binds”.

B5: CB6 (class 1 RBD-directed antibody) (antibody, V domains shown)
VH: EVQLVESGGGLVQPGGSLRLSCAASGFTVSSNYMSWVRQAPGKGLEWVSVIYSGGSTFYADSVKGRFTISRDNSMNTLFLQMNSLRAEDTAVYYCARVLPMYGDYLDYWGQGTLVTVSS
VL: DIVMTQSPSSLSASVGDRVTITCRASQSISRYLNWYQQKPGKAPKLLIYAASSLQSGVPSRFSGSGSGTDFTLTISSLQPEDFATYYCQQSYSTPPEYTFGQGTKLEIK
In test [2], B5 showed a koff of 0.013 s⁻¹.

B6: CB6 (antibody, V domains shown)
VH: EVQLVESGGGLVQPGGSLRLSCAASGFTVSSNYMSWVRQAPGKGLEWVSVIYSGGSTFYADSVKGRFTISRDNSMNTLFLQMNSLRAEDTAVYYCARVLPMYGDYLDYWGQGTLVTVSS
VL: not shown
B6: the binding result in test [1] is listed as “binds”.

B7: SA55 (antibody, V domains shown)
VH: QVQLVQSGAEVKKPGSSVKVSCKASGGTFRSHVISWVRQAPGQGLEWMGGFIPLFGTTIYAQAFQGRVMISADESTSTAYMELSSLRSEDTAVYFCARLFPNGDPNSPEDGFDIWGQGTLVTVSS
VL: DIQMTQSPSSLSASVGDRVTITCQASQDIGNYLNWYQQKPGKAPKLLIYDASHLETGVPSRFSGSGSGTDFTFTISSLQPEDIATYYCQRYDDLPSYTFGQGTKVEIK
notes: as for B2
Take B7: the binding result in test [1] is reported as “binds”.

B8: S2X259 IgG (antibody, V domains shown)
VH: QVQLVQSGAEVKKPGSSVKVSCKASGGIFNTYTISWVRQAPGQGLEWMGRIILMSGMANYAQKIQGRVTITADKSTSTAYMELTSLRSDDTAVYYCARGFNGNYYGWGDDDAFDIWGQGTLVTVYS
VL: QTVLTQPPSVSGAPGQRVTISCTGSNSNIGAGYDVHWYQQLPGTAPKLLICGNSNRPSGVPDRFSGSKSGTSASLAITGLQAEDEADYYCQSYDSSLSGPNWVFGGGTKLTVL
notes: also called class 4 mAb
The molecule B8 registered a koff in test [1] of 0.0011 s⁻¹.

B9: fragment antigen-binding region (Fab) of S2X259 (Fab, V domains shown)
VH: QVQLVQSGAEVKKPGSSVKVSCKASGGIFNTYTISWVRQAPGQGLEWMGRIILMSGMANYAQKIQGRVTITADKSTSTAYMELTSLRSDDTAVYYCARGFNGNYYGWGDDDAFDIWGQGTLVTVYS
VL: QTVLTQPPSVSGAPGQRVTISCTGSNSNIGAGYDVHWYQQLPGTAPKLLICGNSNRPSGVPDRFSGSKSGTSASLAITGLQAEDEADYYCQSYDSSLSGPNWVFGGGTKLTVL
notes: also called S2X259 Fab
In test [1], B9 gave a Kd of 0.97 ± 0.5 nM.

B10: CR3022 (class 4 RBD-directed antibody) (antibody, V domains shown)
VH: QMQLVQSGTEVKKPGESLKISCKGSGYGFITYWIGWVRQMPGKGLEWMGIIYPGDSETRYSPSFQGQVTISADKSINTAYLQWSSLKASDTAIYYCAGGSGISTPMDVWGQGTTVTVSS
VL: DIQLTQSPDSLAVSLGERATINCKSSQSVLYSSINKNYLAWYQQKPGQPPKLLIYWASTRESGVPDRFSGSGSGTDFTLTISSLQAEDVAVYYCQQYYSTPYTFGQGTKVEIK
notes: IgG
In test [2], B10 had a koff of 0.016 s⁻¹.

B11: CR3022 (antibody, V domains shown)
VH: QMQLVQSGTEVKKPGESLKISCKGSGYGFITYWIGWVRQMPGKGLEWMGIIYPGDSETRYSPSFQGQVTISADKSINTAYLQWSSLKASDTAIYYCAGGSGISTPMDVWGQGTTVTVSS
VL: not shown
notes: also called class 4 antibody
For the molecule B11, the binding result in test [1] was “binds”.
